From patent US20230184768A1 (MESO SCALE TECHNOLOGIES, published 2023) come the findings set out here.

In this assay the target is T1, labeled ACE2 (angiotensin-converting enzyme 2) (human, UniProt Q9BYF1 18-740).
T1 construct: also called ACE2 detection reagent
Briefly: labeled ACE2 on immobilized Mixed Panel, ECL.

T1 sequence (Q9BYF1 18-740 limits assumed): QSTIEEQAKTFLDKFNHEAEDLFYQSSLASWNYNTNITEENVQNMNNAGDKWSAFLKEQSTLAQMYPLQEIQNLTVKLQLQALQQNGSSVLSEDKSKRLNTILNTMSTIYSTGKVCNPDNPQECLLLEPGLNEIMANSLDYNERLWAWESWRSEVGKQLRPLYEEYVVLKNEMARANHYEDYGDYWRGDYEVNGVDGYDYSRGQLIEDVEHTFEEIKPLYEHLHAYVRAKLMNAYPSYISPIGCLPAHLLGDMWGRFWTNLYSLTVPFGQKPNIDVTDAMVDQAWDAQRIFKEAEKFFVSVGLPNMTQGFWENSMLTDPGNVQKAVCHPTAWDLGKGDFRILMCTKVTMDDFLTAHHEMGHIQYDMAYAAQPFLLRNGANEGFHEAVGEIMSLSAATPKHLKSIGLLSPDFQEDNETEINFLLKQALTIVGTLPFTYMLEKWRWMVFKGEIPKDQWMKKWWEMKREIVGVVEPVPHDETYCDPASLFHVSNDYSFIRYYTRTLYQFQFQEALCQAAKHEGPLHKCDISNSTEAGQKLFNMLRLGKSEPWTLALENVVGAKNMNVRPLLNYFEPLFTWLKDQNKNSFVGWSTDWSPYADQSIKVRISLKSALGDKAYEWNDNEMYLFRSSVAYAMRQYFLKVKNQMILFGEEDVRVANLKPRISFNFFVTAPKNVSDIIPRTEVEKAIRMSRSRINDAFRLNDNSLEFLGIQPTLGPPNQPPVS

B1: HCoV-HKU1 S protein (other)
chain: AVIGDFNCTNFAINDLNTTVPRISEYVVDVSYGLGTYYILDRVYLNTTILFTGYFPKSGANFRDLSLKGTTYLSTLWYQKPFLSDFNNGIFSRVKNTKLYVNKTLYSEFSTIVIGSVFINNSYTIVVQPHNGVLEITACQYTMCEYPHTICKSKGSSRNESWHFDKSEPLCLFKKNFTYNVSTDWLYFHFYQERGTFYAYYADSGMPTTFLFSLYLGTLLSHYYVLPLTCNAISSNTDNETLQYWVTPLSKRQYLLKFDNRGVITNAVDCSSSFFSEIQCKTKSLLPNTGVYDLSGFTVKPVATVHRRIPDLPDCDIDKWLNNFNVPSPLNWERKIFSNCNFNLSTLLRLVHTDSFSCNNFDESKIYGSCFKSIVLDKFAIPNSRRSDLQLGSSGFLQSSNYKIDTTSSSCQLYYSLPAINVTINNYNPSSWNRRYGFNNFNLSSHSVVYSRYCFSVNNTFCPCAKPSFASSCKSHKPPSASCPIGTNYRSCESTTVLDHTDWCRCSCLPDPITAYDPRSCSQKKSLVGVGEHCAGFGVDEEKCGVLDGSYNVSCLCSTDAFLGWSYDTCVSNNRCNIFSNFILNGINSGTTCSNDLLQPNTEVFTDVCVDYDLYGITGQGIFKEVSAVYYNSWQNLLYDSNGNIIGFKDFVTNKTYNIFPCYAGRVSAAFHQNASSLALLYRNLKCSYVLNNISLTTQPYFDSYLGCVFNADNLTDYSVSSCALRMGSGFCVDYNSPSSSSSRRKRRSISASYRFVTFEPFNVSFVNDSIESVGGLYEIKIPTNFTIVGQEEFIQTNSPKVTIDCSLFVCSNYAACHDLLSEYGTFCDNINSILDEVNGLLDTTQLHVADTLMQGVTLSSNLNTNLHFDVDNINFKSLVGCLGPHCGSSSRSFFEDLLFDKVKLSDVGFVEAYNNCTGGSEIRDLLCVQSFNGIKVLPPILSESQISGYTTAATVAAMFPPWSAAAGIPFSLNVQYRINGLGVTMDVLNKNQKLIATAFNNALLSIQNGFSATNSALAKIQSVVNSNAQALNSLLQQLFNKFGAISSSLQEILSRLDALEAQVQIDRLINGRLTALNAYVSQQLSDISLVKFGAALAMEKVNECVKSQSPRINFCGNGNHILSLVQNAPYGLLFMHFSYKPISFKTVLVSPGLCISGDVGIAPKQGYFIKHNDHWMFTGSSYYYPEPISDKNVVFMNTCSVNFTKAPLVYLNHSVPKLSDFESELSHWFKNQTSIAPNLTLNLHTINATFLDLYYEMNLIQES
notes: also called HCoV-HKU1 spike protein
B1: the binding result was “no binding”.
